From patent publication US20150275238A1, “GENETICALLY ENGINEERED MICROBES AND METHODS FOR CONVERTING ORGANIC ACIDS TO ALCOHOLS” (UNIVERSITY OF GEORGIA RESEARCH FOUNDATION, INC., priority 2014, published 2015) come the findings set out here.

Substrate in data set [1]: CC=O
Description: AdhA alcohol dehydrogenase enzyme assay, Michaelis-Menten kinetics in cell extracts of P. furiosus strain A. The class given is biochemical, Thermoanaerobacter strain X514. Conditions: other: recombinant AdhA in cell extracts of P. furiosus strain A, 50 mM Mops pH 7.5, 2 mM DTT, 70° C., nonlinear regression.

Substrate in data set [2]: CCCC=O
The description is as above. Conditions: other: recombinant AdhA in cell extracts of P. furiosus strain A, 50 mM Mops pH 7.5, 2 mM DTT, 70° C., nonlinear regression. The class given is biochemical, Thermoanaerobacter strain X514.

B1: T. X514 AdhA (Thermoanaerobacter ethanolicus) (protein)
chain: MWETKINPNKVFELRCKNTTYFGIGSIKKIKDILEVLKNKGINNVILVTGKGSYKASGAWDVVKPALETLGFKYSLYDKVGPNPTVDMIDEAAKIGRETGAKAVIGIGGGSPIDTAKSVAVLLEYTDKNARELYEQKFIPEKAAPIIAINLTHGTGTEVDRFAVATIPEKNYKPAIAYDCLYPMYAIDDPSLMTKLDKKQTIAVTIDALNHVTEAATTLVASPYSVLMAKETVRLIVRYLPAAVNDPENLVARYYLLYASALAGISFDNGLLHLTHALEHPLSAVKPEIAHGLGLGAILPAVVKAIYPSVAEVLAEVYSPIVPGLKGLPAEAEYVAKKVEEWLFKVGCTQKLSDFGFTKEDIPTLVRLAKTTPSLDGLLSNAPVEATEAVIAKIYEESF
As to B1, the Km turned out to be 63 µM in data set [1] and 166 µM in data set [2].
